Reference: patent US20100167321A1 (AICHI PREFECTURE, published 2010)

T1: HLA-A2402 molecule on T2-A24 cells (human, UniProt P04439-2 25-302 at identity 0.92))
T1 construct: whole, on cells; Cell-surface HLA-A2402 of T2-A24 transfectants; also called HLA-A24 molecules
T1 MHC heavy: not shown

B1: Ep304 (Ep-CAM 304-312 peptide EMGEMHREL) (peptide)
peptide: EMGEMHREL
notes: Synthetic peptide
B2: Ep250 (Ep-CAM 250-259 peptide YYVDEKAPEF) (peptide)
peptide: YYVDEKAPEF
notes: Synthetic peptide
B3: Ep31 (Ep-CAM 31-39 peptide NYKLAVNCF) (peptide)
peptide: NYKLAVNCF
notes: Synthetic peptide
B4: Ep225 (Ep-CAM 225-233 peptide LFHSKKMDL) (peptide)
peptide: LFHSKKMDL
notes: Synthetic peptide
B5: Ep185 (Ep-CAM 185-193 peptide LYENNVITI) (peptide)
peptide: LYENNVITI
notes: Synthetic peptide
B6: Ep296 (Ep-CAM 296-305 peptide KYEKAEIKEM) (peptide)
peptide: KYEKAEIKEM
notes: Synthetic peptide

Target: T1, HLA-A2402 molecule on T2-A24 cells
Experiment: MHC stabilization assay, T2-A24 cells with 10 µM peptide, anti-HLA-A2402 mAb staining, flow cytometry

| Binder | % MFI increase [%] |
| --- | --- |
| B1 | 16 |
| B2 | 57 |
| B3 | 85 |
| B4 | 29 |
| B5 | 79 |
| B6 | 24 |
